Data published in US12404346B2, “Anti-naloxone and anti-naltrexone monoclonal antibodies and methods of production and use thereof” (Siemens Healthcare Diagnostics Inc., priority 2019, dated 2025).

B1: 180C 7G8: anti-naltrexone monoclonal antibody generated using naltrexone-3-Val-mcKLH; heavy chain SEQ ID NO:81, light chain SEQ ID NO:85 (antibody, V domains shown)
VH: MYLGLNCVIIVFLLKGVQSEVKLEESGGGLVQPGGSVKLSCAVFGFTFSDPWMDWVRQSPEKGLEWVAEIRNKAYNHATYYAESVKGRFTISRDDSNSRVSLQMNNLRAEDTGVYYCTAGDSSHSYWQGTLVTVSA
VL: MEFQTQVFVFVLLWLSGVDGDIVMTQSQKFMSTSVGDRVSIICKASQNVRTAVAWYQQKPGQSPKTLIYLASNRHTGVPDRFTGSGSGTDFTLTISNVQAEDLADYFCLQHWNYPLTFGGGTKLEIK
modifications: Amino acid sequence of heavy chain of monoclonal antibody 180C 7G8; Amino acid sequence of light chain of monoclonal antibody 180C 7G8
B2: 180C 1F8: anti-naltrexone monoclonal antibody generated using naltrexone-3-Val-mcKLH; heavy chain SEQ ID NO:61, light chain SEQ ID NO:65 (antibody)
heavy: MEWSWIFLFFLSVTTGVHSQVQLQQSDAELVKPGTSVKISCKASGFTFTDHAIHWVKQRPEQGLEWIGYISPGNGDIKYNEKFKGKATLTADKSSSTAYMQLNSLTSEDSAVYFCDYYNGRVDYWGQTTLTVSS
light: MEFHTQVFVFVFLWLSGVDGDIVMTQSQKFMTTSVGDRVSITCKASQNVGSAVAWYQQKPGQSPKLLIYSASNRFTGVPDRFTGSGSRTDFTLTISNMQSDDLADYFCHQYRSYPYTFGGGTKLEIK
modifications: Amino Acid sequence of heavy chain of monoclonal antibody 180C 1F8; Amino Acid sequence of light chain of monoclonal antibody 180C 1F8
B3: 179B 9G1.1: anti-naloxone monoclonal antibody generated using naloxone-3-Val-mcKLH; heavy chain SEQ ID NO:161, light chain SEQ ID NO:165 (antibody)
heavy: MEWPCIFLFLLSVTEGVHSQVQLQQSGPELVKPGASVMISCKVFGDIFSSSWMNWVKQRPGKGLEWIGWICPGNGATKYNGKFKGKATLTADKSSGTGYMQLSSLTSEDSAVYFCELGRRDGYLDVWAGTTVTVSS
light: MESQTQVFVYMLLWLSGVDGDIVMTQSQKFIFTSEGDRVSVTCKASQNVGTNIAWYQQKPGQSPKALIYSASNRYSGVPDRFTGSGSGTDFTLTFSNVQSEDLAEYFCLQYNNYPWTFGGGTKLEIK
modifications: Amino acid sequence of heavy chain of monoclonal antibody 179B 9G1.1; Amino acid sequence of light chain of monoclonal antibody 179B 9G1.1
B4: 180C 9D5: anti-naltrexone monoclonal antibody generated using naltrexone-3-Val-mcKLH; heavy chain SEQ ID NO:121, light chain SEQ ID NO:125 (antibody)
heavy: MGWNYIFLFLIATVTDVHSQVRLQQPGTDLVKPGASVKLSCRASGFTFTNYWMNWVKQRPGQGLEWIGEINTNGGTKYNENFKNKATLTVDQSSSTAYIQLSGLTSEDSAVYFCNYFDGNYDYWGQGTLTVSS
light: MEFHTQVFVFVFLWLSGVDGDIVMTQSQKFMSTPVGDRVSLTCRASQNVGTAVAWYQQKPGQPPKLLIYSTSNRFTGVPSRFTGSGSGTDFTLTITNMQSEDLADYFCHQYSSYPYTFGGGTKLEIK
modifications: Amino acid sequence for heavy chain of monoclonal antibody 180C 9D5; Amino acid sequence for light chain of monoclonal antibody 180C 9D5
B5: 180B 13F7: anti-naltrexone monoclonal antibody generated using naltrexone-3-Val-mcKLH; heavy chain SEQ ID NO:41, light chain SEQ ID NO:45 (antibody)
heavy: MRVLILVYLLTALPGILSDIQLQESGPGLVKPSQTVSLTCTVTGYSITYVNHWWNWIRQVSGNKLEWIGYISSSGSIDSNPSLKSRIAITRDTSKNQLFLQLKSVTTEDVGTYYCVSEDSSGYHYWGGTTLTVSS
light: MKLPVRLLVLMFWIPASSSDVVMTQTPLSLPVSLGDQASISCRSSQSLVFSNGKTYFHWYLQKPGQSPKLLIYRVSNRFSGVPDRFSGSGSGTDFTLKISRVEAEDLGVYFCSQSTHVPWTFGGGTKLEIK
modifications: Amino Acid sequence of heavy chain of monoclonal antibody 180B 13F7; Amino Acid sequence of light chain of monoclonal antibody 180B 13F7
B6: 179B 9E12: anti-naloxone monoclonal antibody generated using naloxone-3-Val-mcKLH; heavy chain SEQ ID NO:181, light chain SEQ ID NO:185 (antibody, V domains shown)
VH: MGWSWIFLFLLSGTAGVHCQIQLQQSGPELVKPGASVKISCKASDYSFTNSYINWVKQRPGQGLEWIGWIYPGSTNTKYNEKFWDKATLTVDTSSNTAYMELRGLTSEDSAVYFCEMGTHYSYDVMDWGQGTSVTVSS
VL: MEFQTQVFVFVLLWLSGVDGDIVMTPSQKFMSTSVGDRVSITCKASQNVRTSVGWYQQKPGQSPKPLIYATSNRHTGVPDRFTGSGSGTDFSLTITNVQSEDQADYFCLQHWNYPWTFGGGTKLEIK
modifications: Amino acid sequence of heavy chain of monoclonal antibody 179B 9E12; Amino acid sequence of light chain of monoclonal antibody 179B 9E12
B7: 180C 9G8: anti-naltrexone monoclonal antibody generated using naltrexone-3-Val-mcKLH; heavy chain SEQ ID NO:141, light chain SEQ ID NO:145 (antibody, V domains shown)
VH: MYLGLNCVIIVFLLKGVQSEVKLEESGGGLVQPGGSMKLSCAASGFTFSDAWMDWVRQSPEKGLEWVAEIRNKANNHATYYAESVKGRFTISRDDSNSRMFLQMDSLRAEDTGIYYCIGGIPRYFDVGAGTTVTVSS
VL: MESQTQVFVYMLLWLSGVDGDIVMTQSQKFMSTSVGDRVSITCKASQNVRTYVAWYQQKPGQSPKALLYSASYRYSGVPDRFIGSGSGTQFTLTISDVQSEDLAEYFCHQYNSYPLTFGGGTKLEIQ
modifications: Amino acid sequence of heavy chain of monoclonal antibody 180C 9G8; Amino acid sequence of light chain of monoclonal antibody 180C 9G8
B8: 180C 8A10: anti-naltrexone monoclonal antibody generated using naltrexone-3-Val-mcKLH; heavy chain SEQ ID NO:101, light chain SEQ ID NO:105 (antibody)
heavy: MGWSYIFLFLVATVTDVHSQVQLQQPGAELVKPGASVKLSCKASGYTFTNYWINWVKQRPGQGLEWLGEINPSNSNTKYNEKFKSRATLTADKSSSTAYMQLHSLTSEDSAVYYCNYYDGGHDSWGQTTLTVSS
light: MEFHTQVFVFVFLWLSGVDGDIVMTQSQKFMSTTLGDRVSIICKASQNVGTAVAWYQQKPGQSPKLLIYSTSNRYTGVPDRFTGSGSGTDFSLTISSVQSEDLADYFCHQYSSYLYTFGGGTRLEIK
modifications: Amino acid sequence of heavy chain of monoclonal antibody 180C 8A10; Amino acid sequence of light chain of monoclonal antibody 180C 8A10

Experiments:
[1] = inhibition ELISA, anti-naltrexone monoclonal antibodies against key opioids (FIG. 8); format: binding; settings: free drug 20 μg/mL, plates coated with ovalbumin conjugate
Description: (§1) Mice with good anti-drug antibody titers and binding to free drug in the ELISA inhibition assays were selected to proceed with generation of monoclonal antibodies, in a similar manner to that described in U.S. Pat. No. 9,815,907 (issued to Sharma et al. on Nov. 14, 2017). In particular, mice with highest titers and best specificity were boosted three days prior to fusion. On the day of fusion, spleen cells were harvested from these mice and were fused with myeloma cell line P3X63Ag8.653 using PEG-assisted fusion protocols. After about ten days, hybridoma supernatants were screened for anti-naloxone and anti-naltrexone antibodies using a plate ELISA (direct binding and inhibition ELISA for specificity). Positive clones were further expanded and sub-cloned, and supernatants were purified using a Protein A SEPHAROSE® (GE Healthcare, Chicago, IL) column. Purified antibody samples were tested using ELISA for binding to the immunogen (i.e., a conjugate of drug-carrier protein) and to free opioids.
(§2) Antibody solution (Immune mouse bleeds or hybridoma clones supernatant or purified antibody) was screened using an inhibition ELISA procedure according to the following protocol. […] Plate coating was performed for 1 hour or more at room temperature or overnight at about 2° C. to 8° C. The plates were then flicked dry and blocked with 200 μL per well of blocking buffer solution (0.5% Casein solution in PBS containing 0.05% TWEEN® 20 surfactant (Croda International PLC, Snaith, United Kingdom). Plate blocking was performed by incubation for 30 minutes or more at room temperature with plate shaking. The plates were washed using a plate washer (BioTek®, Winooski, VT) with plate stacker with the washing buffer being MILLIQ® water (Millipore Corporation, Billerica, MA) containing 0.05% TWEEN® 20. The monoclonal antibody to be screened was then added to each well along with free drug as follows: 25 μL per well of appropriately diluted culture supernatant (or antibody solution) and added 25 μL of 20 μg/mL of free drug. Incubation was performed for about 1 hour at room temperature with plate shaking. The plate was washed. An enzyme conjugate (goat anti-mouse IgG coupled to HRP diluted in blocking buffer diluted to 1:3000) was added at 50 μL per well. Incubation was performed for about 1 hour at room temperature with shaking. The plate was then washed, and a chromogenic solution (TMB from Moss Substrates, Pasadena MD) was added at a volume of 100 μL per well. If a desired antibody was present in the hybridoma supernatant, then a decrease in optical density was observed compared to the well containing no free drug. The plates were read at 650 nm wavelength using an ELISA plate reader (Molecular Devices, San Jose, CA). Note: appropriate dilution of antibody solution was determined by performing a titration ELISA. The antibody dilution was chosen where around 1.0 optical density was observed.

[2] = inhibition ELISA, anti-naloxone monoclonal antibodies against key opioids (FIG. 7); format: binding; settings: free drug 20 μg/mL, plates coated with ovalbumin conjugate
Description: as §1, §2

| Molecule | specificity for naltrexone over the other key opioids tested in the inhibition ELISA assay [1] | specificity for naloxone over the other key opioids tested in the inhibition ELISA assay [2] |
| --- | --- | --- |
| B1 | good specificity for naltrexone | – |
| B2 | good specificity for naltrexone | – |
| B3 | – | good specificity for naloxone |
| B4 | good specificity for naltrexone | – |
| B5 | good specificity for naltrexone | – |
| B6 | – | good specificity for naloxone |
| B7 | good specificity for naltrexone | – |
| B8 | good specificity for naltrexone | – |
